# Measurements from article PMC9581989.
# Molecular target: Lactococcus lactis pyruvate carboxylase (Lactococcus lactis)
# Test: cryo-EM structure; LlPC under reaction conditions: 0.1 uM LlPC, 2 mM acetyl-CoA, 20 mM pyruvate, 2 mM ATP, 10 mM KHCO3, 5 mM MgCl2, 2 mM DTT, 200 mM NaCl, 20 mM Tris pH 7.6; symmetry expansion, focused classification of BC and CT domains
substance,measurement,value
Lactococcus lactis pyruvate carboxylase (enzyme),stoichiometry N,4
